Each block holds one molecule with its values, some of them ahead of it.
What was measured:
[1] = target: T1, RpHpsP (S-DHPS dehydrogenase HpsP, SPO0596) (Ruegeria pomeroyi, UniProt Q5LVU9); experiment: SPR (Biacore T200, CM5 chip); also NADH formation assay; format: binding
T1 sequence (Q5LVU9 1-332): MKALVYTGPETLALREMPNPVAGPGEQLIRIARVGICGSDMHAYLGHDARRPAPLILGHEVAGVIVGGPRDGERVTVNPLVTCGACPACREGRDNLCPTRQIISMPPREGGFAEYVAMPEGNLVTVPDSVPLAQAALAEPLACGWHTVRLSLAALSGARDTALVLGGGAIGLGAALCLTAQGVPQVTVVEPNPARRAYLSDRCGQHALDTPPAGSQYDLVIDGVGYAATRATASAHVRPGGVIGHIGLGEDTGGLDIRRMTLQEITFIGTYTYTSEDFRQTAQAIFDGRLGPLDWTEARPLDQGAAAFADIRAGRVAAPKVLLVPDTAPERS

[2] = target: T2, RpHpsO (R-DHPS dehydrogenase HpsO, SPO0595) (Ruegeria pomeroyi, UniProt Q5LVV0); experiment: SPR (Biacore T200, CM5 chip); also NADH formation assay, Km […]; format: binding
T2 sequence (Q5LVV0 1-253): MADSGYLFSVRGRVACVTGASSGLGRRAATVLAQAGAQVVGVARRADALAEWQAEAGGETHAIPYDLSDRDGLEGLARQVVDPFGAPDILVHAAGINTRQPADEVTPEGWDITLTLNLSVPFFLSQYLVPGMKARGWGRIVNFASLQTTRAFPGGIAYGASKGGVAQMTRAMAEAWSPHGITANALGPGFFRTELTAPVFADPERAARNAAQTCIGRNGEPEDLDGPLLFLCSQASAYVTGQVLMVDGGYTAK

[3] = target: T3, RpHpsN (R-DHPS dehydrogenase HpsN, SPO0594) (Ruegeria pomeroyi, UniProt Q5LVV1); experiment: as above; format: binding
T3 sequence (Q5LVV1 1-435): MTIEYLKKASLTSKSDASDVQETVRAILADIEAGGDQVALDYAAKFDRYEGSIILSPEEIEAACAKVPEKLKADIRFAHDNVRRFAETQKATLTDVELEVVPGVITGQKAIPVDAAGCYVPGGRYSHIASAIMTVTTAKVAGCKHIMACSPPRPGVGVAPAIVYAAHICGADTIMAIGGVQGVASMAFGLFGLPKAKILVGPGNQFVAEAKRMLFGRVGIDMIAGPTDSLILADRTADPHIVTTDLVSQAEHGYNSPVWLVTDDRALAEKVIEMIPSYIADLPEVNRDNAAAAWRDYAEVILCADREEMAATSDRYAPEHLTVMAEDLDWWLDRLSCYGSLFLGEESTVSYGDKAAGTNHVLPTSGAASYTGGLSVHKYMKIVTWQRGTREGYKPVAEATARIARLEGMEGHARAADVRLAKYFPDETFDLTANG

[4] = target: HpsP from Dinoroseobacter shibae DFL 12 (S-DHPS dehydrogenase) (Dinoroseobacter shibae DFL 12) (UniProt A8LJR6); experiment: crystal structure; DsHpsP alone, crystallised at 18°C in 0.2 M sodium formate, 18% PEG 3350; 2.3 Å; oligomer seen in the asymmetric unit
[5] = substrate: OC[C@@H](O)[C@@H](O)[C@H](O)[C@@H](O)CO; experiment: Michaelis-Menten kinetics of purified enzyme (Km); format: biochemical, Bacillus subtilis
[6] = target: the molecule itself; experiment: crystal structure; RpHpsN alone, crystallised at 18°C in 0.1 M Tris pH 7.5, 1.1 M ammonium sulfate; 2.9 Å; oligomer seen in the asymmetric unit
[7] = substrate: N[C@H](CO)Cc1c[nH]cn1; experiment: Michaelis-Menten kinetics of purified enzyme (Km); format: biochemical, Escherichia coli
[8] = target: the molecule itself; experiment: crystal structure; RpHpsO alone, crystallised at 20°C in 0.1 M sodium citrate pH 5.4, 0.8 M sodium formate; 1.7 Å; oligomer seen in the asymmetric unit

- Kd [1]: 740 µM
Molecule: O=S(=O)(O)C[C@@H](O)CO [S-DHPS]

- Kd [2]: 330 µM
- Kd [3]: 860 µM
Molecule: O=S(=O)(O)C[C@H](O)CO [R-DHPS]

- stoichiometry N [4]: 4
Molecule: HpsP from Dinoroseobacter shibae DFL 12 (S-DHPS dehydrogenase) (from UniProt A8LJR6 1-512) (enzyme)

B1: D-sorbitol dehydrogenase (Bsubs1_010100003458) (Bacillus subtilis subsp. subtilis str. 168) (protein)
chain: THTVPQNMKAAVMHNTREIKIETLPVPDINHDEVLIKVMAVGICGSDLHYYTNGRIGNYVVEKPFILGHECAGEIAAVGSSVDQFKVGDRVAVEPGVTCGRCEACKEGRYNLCPDVQFLATPPVDGAFVQYIKMRQDFVFLIPDSLSYEEAALIEPFSVGIHAAARTKLQPGSTIAIMGMGPVGLMAVAAAKAFGAGTIIVTDLEPLRLEAAKKMGATHIINIREQDALEEIKTITNDRGVDVAWETAGNPAALQSALASVRRGGKLAIVGLPSQNEIPLNVPFIADNEIDIYGIFRYANTYPKGIEFLASGIVDTKHLVTDQYSLEQTQDAMERALQFKNECLKVMVYPNR
- Km [5]: 32.35 ± 3.59 mM
- kcat [5]: 0.027 ± 0.001 s⁻¹
- kcat/Km [5]: 0.83 ± 0.045 M⁻¹ s⁻¹

B2: HpsN from Ruegeria pomeroyi DSS-3 (R-DHPS dehydrogenase) (enzyme)
chain: MTIEYLKKASLTSKSDASDVQETVRAILADIEAGGDQVALDYAAKFDRYEGSIILSPEEIEAACAKVPEKLKADIRFAHDNVRRFAETQKATLTDVELEVVPGVITGQKAIPVDAAGCYVPGGRYSHIASAIMTVTTAKVAGCKHIMACSPPRPGVGVAPAIVYAAHICGADTIMAIGGVQGVASMAFGLFGLPKAKILVGPGNQFVAEAKRMLFGRVGIDMIAGPTDSLILADRTADPHIVTTDLVSQAEHGYNSPVWLVTDDRALAEKVIEMIPSYIADLPEVNRDNAAAAWRDYAEVILCADREEMAATSDRYAPEHLTVMAEDLDWWLDRLSCYGSLFLGEESTVSYGDKAAGTNHVLPTSGAASYTGGLSVHKYMKIVTWQRGTREGYKPVAEATARIARLE
notes: HpsN, R-DHPS dehydrogenase (sulfopropanediol 3-dehydrogenase) of the aldehyde dehydrogenase superfamily, Ruegeria pomeroyi DSS-3, locus tag SPO0594; Wild type; Val218-Gly225 and Thr348-Leu374 lack electron density in the crystal structure; also called RpHpsN; SPO0594; source: E. coli BL21(DE3), pET28a, purified (HisTrap HP, Superdex 200 gel filtration)
- stoichiometry N [6]: 4

B3: L-histidinol dehydrogenase (Escherichia coli K-12) (protein)
chain: SFNTIIDWNSCTAEQQRQLLMRPAISASESITRTVNDILDNVKARGDEALREYSAKFDKTTVTALKVSAEEIAAASERLSDELKQAMAVAVKNIETFHTAQKLPPVDVETQPGVRCQQVTRPVASVGLYIPGGSAPLFSTVLMLATPASIAGCKKVVLCSPPPIADEILYAAQLCGVQDVFNVGGAQAIAALAFGTESVPKVDKIFGPGNAFVTEAKRQVSQRLDGAAIDMPAGPSEVLVIADSGATPDFVASDLLSQAEHGPDSQVILLTPAADMARRVAEAVERQLAELPRAETARQALNASRLIVTKDLAQCVEISNQYGPEHLIIQTRNARELVDSITSAGSVFLGDWSPESAGDYASGTNHVLPTYGYTATCSSLGLADFQKRMTVQELSKEGFSALASTIETLAAAERLTAHKNAVTLRVNALKEQA
- Km [7]: 9.37 ± 3.63 mM
- kcat [7]: 0.042 ± 0.022 s⁻¹
- kcat/Km [7]: 4 ± 2 M⁻¹ s⁻¹

B4: HpsO from Ruegeria pomeroyi DSS-3 (R-DHPS dehydrogenase) (enzyme)
chain: T2 sequence (Q5LVV0 1-253)
notes: HpsO, R-DHPS dehydrogenase of the short chain dehydrogenase/reductase family, Ruegeria pomeroyi DSS-3, locus tag SPO0595; Wild type; also called RpHpsO; SPO0595; source: E. coli BL21(DE3), pET28a, purified (HisTrap HP, Superdex 200 gel filtration)
- stoichiometry N [8]: 4
